Target: T1, recombinant human CCR8 protein (human, UniProt P51685 1-355, limits assumed)
T1 construct: Recombinant protein fixed on a CM5 chip by amino coupling (about 15 RU); also called human CCR8 recombinant protein
Experiment: SPR (Biacore 8K), CCR8 fixed on CM5 chip by amino coupling, antibody 1 nM-31.25 pM as analyte, 1:1 model

T1 sequence (P51685 whole entry): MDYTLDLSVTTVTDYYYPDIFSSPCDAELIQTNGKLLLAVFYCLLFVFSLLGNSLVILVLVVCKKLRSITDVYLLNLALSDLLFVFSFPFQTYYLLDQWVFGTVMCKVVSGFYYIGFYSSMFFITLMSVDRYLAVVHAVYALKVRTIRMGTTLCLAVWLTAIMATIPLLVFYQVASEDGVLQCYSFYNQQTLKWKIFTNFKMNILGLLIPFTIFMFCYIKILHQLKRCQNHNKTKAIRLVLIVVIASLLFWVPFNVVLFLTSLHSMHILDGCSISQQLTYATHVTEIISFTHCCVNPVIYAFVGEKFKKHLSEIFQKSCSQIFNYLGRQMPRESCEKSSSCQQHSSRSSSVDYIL

B1: anti-human CCR8 monoclonal antibody J06 (antibody, human IgG1, kappa, V domains shown)
VH: EVQLVESGGGVVQPGRSLRLSCAASGFPFEPFAMNWVRQAPGKGLEWVARIRSKANNYATYYADSVKDRFAISRDNSKRTLYLLMHSLRFEDTAVYYCVRGRENNYGYAMDYWGQGTTVTVSS
VL: DVVMTQSPPSLPVTLGQSASISCRSSQSLLHSNGITYLYWFLQRPGQSPRLLIYRMSNLASGVPDRFSGSGSGTDFTLRISRVEAEDVGVYYCMQHLTYPFTFGIGTKVEIKR
notes: also called J06 preparation; anti-CCR8 Mab 1187
With B1 the Kd was 7.77 pM, the koff was 0.000131 s⁻¹ and the kon was 1.69e+07 M⁻¹ s⁻¹.

Source: patent EP4740958A1 (QILU PHARMACEUTICAL CO., LTD., dated 2026)
